Patent publication US8008547B2, “Glyphosate-N-acetyltransferase (GAT) genes” (E.I. duPont de Nemours, priority 2000, dated 2011)

How the values were obtained:
yeast strain YPH499 = experiment: Glyphosate selection of transformed yeast cells; format: cell-based, Saccharomyces cerevisiae; conditions: CSM-YNB-glucose medium lacking aromatic amino acids with added glyphosate
Description: Selection markers for yeast transformation are usually auxotrophic genes that allow growth of transformed cells on a medium lacking the specific amino acid or nucleotide. Because Saccharomyces cerevisiae is sensitive to glyphosate, GAT can also be used as a selectable marker. […] This plasmid contains an E. coli origin of replication and a gene conferring carbenicillin resistance as well as a TRP1, tryptophan auxotroph selectable marker for yeast transformation.
The GAT containing construct is transformed into E. coli XL1 Blue (Statagene) and plated on LB carbenicillin (50 ug/ml) agar medium. Plasmid DNA is prepared and used to transform yeast strain YPH499 (Stratagene) using a transformation kit (Bio 101). Equal amounts of transformed cells are plated on CSM-YNB-glucose medium (Bio 101) lacking all aromatic amino acids (tryptophan, tyrosine, and phenylalanine) with added glyphosate. For comparison, p424TEF lacking the GAT gene is also introduced into YPH499 and plated as described. […] The presence of the GAT containing vector in glyphosate selected colonies can be confirmed by re-isolation of the plasmid and restriction digest analysis.

tobacco plants = experiment: Herbicide spray tests of GAT expressing tobacco plants; format: in vivo, Nicotiana tabacum; conditions: transgenic GAT tobacco
Method: Tobacco shoots generated as described in EXAMPLE 9 were excised from the explants and transferred to basal root induction (BRI) medium composed of half-strength Murashige and Skoog (MS) medium, pH 5.7, with 1.5% sucrose, 0.3% Gelrite, 0-200 uM glyphosate and 400 ug/ml Timentin. Rooted plants and axillary shoots were clonally propagated by cutting the stem and transferring it to fresh BRI medium until the desired number of clones was obtained. Rooted plants were carefully removed from the solid medium. Prior to placing the plants into small pots of soil, the roots were washed to remove any remaining Gelrite. A protective plastic cover was kept over the plants for at least one week until the plants were well established.
To determine if GAT expressing tobacco plants could tolerate simulated field rate sprays of glyphosate, clonal lines of several events per GAT variant were tested. A typical test was set up as follows: One clone from each event was sprayed with 1 ml of solution containing the isopropylamine salt of glyphosate (Sigma P5671) and 0.125% Triton X-100, pH 6.8 such that the amount of active ingredient sprayed was equivalent to that present in commercial glyphosate products. For example, to achieve 32 oz/acre (1×) of herbicide containing 40% active ingredient (“ai”), 2.4 ul of 40% ai formulation was diluted into 1 ml water and sprayed on a plant in a 4-inch square pot (16 in^2). A mock application (0×) with surfactant only was also included. In some cases a second spray was applied 1-4 weeks later. Plants were kept in controlled growth rooms at 25° C. and 70% humidity with 16 hr light.
Seed-grown wild type plants were also sprayed. […] All 0× plants were healthy, including the non-GAT control plants. Three weeks later all of the surviving plants were sprayed with an 8× dose.

B1: SEQ ID NO: 196: evolved GAT gene (nucleic acid)
DNA: ATGCTAGAGGTGAAACCGATTAACGCAGAGGATACCTATGAACTAAGGCATAAAATACTCAGACCAAACCAGCCGTTAGAAGTGTGTATGTATGAAACCGATTTACTTCGTGGTGCATTTCACTTAGGCGGCTTTTACAGGGGCAAACTGATTTCCATAGCTTCATTCCACCAGGCCGAGCACTCAGACCTCCAAGGCCAGAAACAGTACCAGCTCCGAGGTATGGCTACCTTGGAAGGTTATCGTGATCAGAAAGCGGGATCGAGTCTAATTAGACACGCTGAACAAATTCTTCGTAAGAGGGGGGCGGACATGCTTTGGTGCAATGCGCGGACATCCGCCTCAGGCTACTACAAAAAGTTAGGCTTCAGCGAGCAGGGAGAGGTATTTGAAACGCCGCCAGTAGGACCTCACATCCTGATGTATAAAAGGCTCACA
modifications: Synthetic DNA Sequence; 0_6D10
notes: evolved GAT gene
function as selectable marker in yeast (yeast strain YPH499): efficient selectable marker
plant response two weeks after glyphosate spray (tobacco plants; 0.5, 2 or 4× glyphosate (1× = 32 oz/acre of 40% ai)): survived the spraying procedure without signs of glyphosate damage
survival after second spray (tobacco plants; 8× glyphosate dose three weeks later): all GAT plants survived
